Measured values reported in the DeepSol protein solubility set.

Experiment: soluble on expression in E. coli; label from the status in PepcDB or PDB records

Soluble on expression in E. coli, not soluble:
MGSDKIHHHHHHMRAPKISEGKINCKEDDNLKLTVLVDNNTILSNNPHFQDRYFLSEPGLSIFIEADGKKVLFDTGHTGIFLQNSEKMNLDLSDLDYLVLSHGHIDHTGGLKSLIDFYQNQGKTNLKDKPTLIAHPECFLSKIDSPWGEIGCGIPEAEITCHFQLQLSREPLWLTENLVFLGEIERSNDFENLTPLGKVHKNTEGQDDYILDDSALVYKGSKGLIIITGCSHAGICNITKYAQKVCRDERVIDIIGGLHLINPGPIQMEKTKEFLKNVAPQTIRACHCTSLRPKIALAESLNMEEVGTGLQLEYY
MEVKIEETDWDEGVPGISFLKDAFSREEISPPKDDKNRKKEEVRMKLESGEYSVVYRCPTFDEILNENGQKIDLVQCKNCFGFLSARTGGHMKNHKNQRCKPLNGPPEKKPKLDPQVVGNLQNHILDFVTESGVSLNIAESEKFRIFIISMIITGNPNVNVDEHQFLSGEWIRKTMKEKSCQYLDNIGAELKDPVSKGDACLILDYGRQLDDTFSIFVSYTNRSSGYFSLRVIPLAFTPLFEKKITEKTLDYILHATDRVGLPKEHVLKLKVVAEGATNMLKLGEYFDNCNLFTVCLSFSSKMCRKSFRSTETVEKFDNFIRKITCESDRKRNRNLWNDFLQTPALQSLINIYVLSLILLCFQLTEQLSRTPAQSRANEWLASYHCARDILHVFPQIADLKDDRIEPLVDELRQCKGVLEDCFEIFSLFENPLKLLEQPEQQIQNVAGCLAAVAKMAKLSIAHYTKITVTDVHLICAFLSPDSKNLKNFPAPKKNKAYRIVNTLMKDVVVPPPSLSQPILSPLLMAIKNDPSPIPTVSQEFNDYVQLVVSSKDATLAPLEFWAKYQERFPRMSEIAAKNFCVMSSPGVCGPSFIVLRSLFRVDRHSKFPDTTELMMISYLMANELK
MGSDKIHHHHHHMLWFKNLMIYRLSQDSVLSKDNVLSTDEMEKRLSAFAFTPCGSQDMMKTGWVSPMGSHSDALTHVVNGQIVICVRKEEKILPSPVIKQTLQAKIERLEAEQHRKLKKTEKDSLKDEVLHSLLPRAFSRLSQVWLWIDTVNGLIMVDAASAKKAEDTLALLRKTLGSLPVVPLTMENPIELTLTEWVRSGEPAAGFALQDEAELKAILEDGGVIRCKKQDLVCDEIAVHIEAGKLVTKLALDWQERIQLILSDDGSVKRLKFSDTLREQNDDIDREDFAQRFDADFILMTSELAALIANLIEALGGEAQR
MILETISKQLQEQQESLNKDYRKKLESIKERSDRLESDLKTQFDAQLEKWEQNFKGYEQQLTDILNEREQLDLDQQRLNAQKQALENHMKQREE
MIKLERETKPDYLSDEKVFELTESFKATKKSVWNHDHIKIPLLRSSHSKCAYCECPLTSASNYMEVEHFEDKNHYPEKVVLWENLLPSCKKCNGAKGQHDVIGDPIINPYVEDPKNHLSMRLYRFRAKSDKGQSTIEVTQLNSSDRSVFCRYEIGEKISEMIDLGFERWNEYLVRNNTRSKNKLVNLVQGLLNECQPTSSYSASTATNLLTDPKFIELMSLMREADIVSEELDDLILKASTLVLDYVLEHHHHHH
RTLELAFSSEAAEVQTRSGVEILGHRINEVRMHRLDNGAALLLDHNPREHIGVVESASIDSDHRGRAIVRFGRSPRAEEILRDVLDGIRKHVSVGYLVHQVEVIGQRDAGPLYRATDWEPIEISIVSIPADPSVGIGRALENLPQD
MGSDKIHHHHHHMYDAQAVQTLSSCLLRLKEGKGIGTLVSEDEADLPKVMTRLKQFDPSKNGLSINEIVHLANALIGEHMSATTIQNWTKREVRDIIGVPHRGKKYSINQAAIIYLLDDLKHLFSLEETRELLTIVFKNPNIDEDDLISPLDFYLVYTQHAETSGPIELTEKRLRRSLERINAYRPETVHVLQLCLYARRISHLTHEAKQRLQHVLQT
MSLIIRTDTSPHRAAAKLSPNELTLTGARLVLPDEVYDGTVHIIDGYIDDIAAGRSTVPGAIDLEGGYVTPGLIDLHTDNSEKHALPRAGVVWNHLSAVMAHDALVIAAGITTVFDSLCIGSTTRDHTRQADRARILPVLIDGIREARAHGLLRADHFLHLRCEVTDEEVMSVFTPLVGDPLVKLVSVMDHAPGHRQSPQLDRFREMQIKQYGWSAEDADRRIEAWIDASRTIGPQNRSRIIALARARQLPLASHDDQTPEHVREANDAGVLISEFPTTRAAAEIARSLGICILMGAPNIVRGSSHSGNISARELATTGHLDILASDYVPASLLHGAFQLTRDPIGMSLTKAISTVSSVPASVTGFCDRGMIGIGGRADLCHIVEIADIPVVRGVWRQGRQVFEGHHHHHH
MLFDMDGVLFDSMPYHAEAWHKTMKAHGLNLSREEAYMHEGRTGAGTINIVCQRQLGRDATQEEIESIYLEKSIEFNKHPQAERMPGAWELLQKIKAEGIIPTVVTGSGQASLLDRLEHNFPGMFRQELMVTAFDVKYGKPNPEPYLMALEKGGLKPNEAIVIENAPLGVEAGHKAGIFTIAVNTGPLNGEILLNAGADLLFPSMQALCESWEKLVRLLH
MNAVKIEKGVAQYIEHNLYYYFEYVRDIQRLKKDILFGRANYDENVGGGRGNLPSRPTERRTIELITHRRLERLEQIVHAIQTVYRSLSPEKQKAVQLKYWSGKSYTWEQVAREIGVSVRQLYRWRDQIIYDIAKLLGEVNSNS
MNSNANNTPIAIGISQVFPCSYLDGQQEQLLVIQEETLDPILFERLLAIGFRRSGSAIYKPRCPRCSACQPIRVPIQEFVPSKRQKRTLAHNRDLTWRITTEHTETQYALYEKYIRERHFDGPMYPPSKAQYEQFLFCHWLPPTFIEVYDDNRLVAVAVTDTLPNSFSAIYSYFDPDEERRSLGVLLILLQCRLAKLQGKAFLYLGYQIDANRKMSYKRLYRPYQILTHQGWEYSQVCLEHHHHHH
MGSDKIHHHHHHMRIYDPFRKKWIEEEIETPFPSKGLVATFPFVDLHVHVRLNGGEDYSSLEEASLVGGFFKVVVQPNTKPLIDSKEVLERHLDLSKNRAVEFLFAVSPFGSIEAEGERVVGFSTDGIEYDYPTLVETMKKKKKALWFDHSQMYEVDGIFYEGAPLPFQKRPRSNEAIAIARTVLTGLEYGFERFHIQHVTTKYSVEVISFLKNLAKVSCEVTPHHLFFCYEDIKNTNFKINPPLGSPEDRRALIEAVKKDVIDVLATDHAPHHEKPDDFLTAPYGSTSIEIAFPAYYTALGDLELVVKKLTKKPLEVLGVEARLTEDTLVFIDPEAEFIVDAKKFKSKGKNSMFDGVRLKGKVVALKLKGRWVMIDGEVIADQKEND
MQQSYNPQNSLTATTSYSEQEIVCICESLFNEGLQTGRTEQLANFIYNLPQCYQVMESVLKAQALVYFTTQNWKMLYKLLECSKFSPHNHTVLQNLWLDAHYKEAAKTKDRELGAVCKYRIRKKNPFPNTIWDGEETNYCFKSKSRNVLRDAYKKCQYPSVEDKRRLAQQTELSIIQVSNWFKNKRQRERAAGQLDRSSARSNDSDDGSSGCESKPPMNIDSPAPPPLPTSFDLQPYYPSPYTFAPHCDFSYIQNL
MGSDKIHHHHHHMTWNTPKPGEWKSEELSKGRIIDYKAFNFVDGEGVRNSLYVAGCMFHCEGCYNVATWSFDAGIPYTQELEEQIMEDLAQPYVQGLTLLGGEPFLNTGILLPLLKRIRKELPEKDIWSWTGYTWEELMLETPDKLEMLNLLDILVDGRFDKSKKNLMLQFRGSSNQRIIDVPKSLASGQVVIWDKLNDGKQTYEQIDRDGLI
MGSDKIHHHHHHMRQLLTYDLMESMRVTNQWMGASARALCSYPQLGLAANPFIQLTAAWGEVAERSFARMAAKPDWGISSIPGADGRDHVISIEPVMERAFGDLIRFDVQGREPTGRKILLVAPMSGHYATLLRKTVLSLLPDADVYITDWHNARDIPVSAGKFDIEDYTHYLVDFMREMGPDTNVIAVCQPAPLALAATAYLAEEDPKAQPRTLTLIGGPIDPDAAATDVTDFGRRVTMGHLEKFVVQRVGFKYAGAGRMVYPGIQQLASFMAMNAETHAKAFSDQVVAVSKGEASDHDKHNVFYDEYLAVMDMTAEFYLSTVERIFKNREIAKNTFVVDGKPVDIGKITSVAVKTVEGGKDDISAPGQCVAALDMLTGLPEEKKANYIEPDAGHYGIFAGKSWRNNIRPLVLEFIDANSGIKTPAKRAKPKLVEDPPVENVAV
MDGAQPKTNFFERLIARLAREPDSAEDVLNLLRQAHEQEVFDADTLLRLEKVLDFSDLEVRDAMITRSRMNVLKENDSIERITAYVIDTAHSRFPVIGEDKDEVLGILHAKDLLKYMFNPEQFHLKSILRPAVFVPEGKSLTALLKEFREQRNHMAIVIDEYGGTSGLVTFEDIIEQIVGEIEDEFDEDDSADNIHAVSSERWRIHAATEIEDINTFFGTEYSSEEADTIGGLVIQELGHLPVRGEKVLIGGLQFTVARADNRRLHTLMATRVK

Soluble on expression in E. coli, soluble:
GPGSMNQLVVFLDIDNTLYSGEEYHSLAEQIRDGLVEYVGNWLQLTPQESEAYVVHCFEKYGLTIAGLMHEQKGFDAEAATDFLYSHCDFSHLQENPRLREMLSRLRRNHHLYFFTNASRRHATTVLQALGLSSDEFRMSGFTYEDQWAQTAPVPCNKPMRNAYIAVIKVLKKWLQDAEWVTAECMVMVDDSACNLIEPLALGLNAVWVSHGHPISDVLAEKMNTGRLFCITDIIELEDIIKQITINREN
GMPQTLKPDTPAGTPAAGAVAFRRQVLPQDALLVRRVVESTGFFTPEEADVAQELVDEHLMHGAACGYHFVFATEDDDMAGYACYGPTPATEGTYDLYWIAVAPHRQHSGLGRALLAEVVHDVRLTGGRLLFAETSGIRKYAPTRRFYERAGFSAEAVLKAFYRAGDDKIIYRLEVA
MASKRALVILAKGAEEMETVIPVDVMRRAGIKVTVAGLAGKDPVQCSRDVVICPDASLEDAKKEGPYDVVVLPGGNLGAQNLSESAAVKEILKEQENRKGLIAAICAGPTALLAHEIGFGSKVTTHPLARDKMMNGGHYTYSENRVEKDGLILTSRGPGTSFEFALAIVEALNGKEVAAQVKAPLVLKDLEHHHHHH
MPILEKAPQKMPVKASSWEELDLPKLPVPPLQQTLATYLQCMQHLVPEEQFRKSQAIVKRFGAPGGLGETLQEKLLERQEKTANWVSEYWLNDMYLNNRLALPVNSSPAVIFARQHFQDTNDQLRFAACLISGVLSYKTLLDSHSLPTDWAKGQLSGQPLCMKQYYRLFSSYRLPGHTQDTLVAQKSSIMPEPEHVIVACCNQFFVLDVVINFRRLSEGDLFTQLRKIVKMASNEDERLPPIGLLTSDGRSEWAKARTVLLKDSTNRDSLDMIERCICLVCLDGPGTGELSDTHRALQLLHGGGCSLNGANRWYDKSLQFVVGRDGTCGVVCEHSPFDGIVLVQCTEHLLKHMMTSNKKLVRADSVSELPAPRRLRWKCSPETQGHLASSAEKLQRIVKNLDFIVYKFDNYGKTFIKKQKYSPDGFIQVALQLAYYRLYQRLVPTYESASIRRFQEGRVDNIRSATPEALAFVQAMTDHKAAMPASEKLQLLQTAMQAQTEYTVMAITGMAIDNHLLALRELARDLCKEPPEMFMDETYLMSNRFVLSTSQVPTTMEMFCCYGPVVPNGYGACYNPQPEAITFCISSFHSCKETSSVEFAEAVGASLVDMRDLCSSRQPADSKPPAPKEKARGPTKPSNLDSSH
MKLSPSVIALSVLLSSHTLANTAGQVETCQQKAQDIQRQIDEAHKHGNQNRINGLEKALDGVKNHCTDAGLAEKRQEAIAEKRKDVAERQQELSESRQKRDDAEKILKRERKLAEAEQELRAAESGASQLEHHHHHH
